Data on one molecule can be found in article PMC6922461.

This test has as its target trivalent Strep-Tactin-SpyCatcher.

B1: Siglec-14 with N-terminal Strep-tag II, on THP-1 cells (receptor)
chain: SAWSHPQFEKEKPVYELQVQKSVTVQEGLCVLVPCSFSYPWRSWYSSPPLYVYWFRDGEIPYYAEVVATNNPDRRVKPETQGRFRLLGDVQKKNCSLSIGDARMEDTGSYFFRVERGRDVKYSYQQNKLNLEVTALIEKPDIHFLEPLESGRPTRLSCSLPGSCEAGPPLTFSWTGNALSPLDPETTRSSELTLTPRPEDHGTNLTCQVKRQGAQVTTERTVQLNVSYAPQNLAISIFFRNGTGTALRILSNGMSVPIQEGQSLFLACTVDSNPPASLSWFREGKALNPSQTSMSGTLELPNIGAREGGEFTCRVQHPLGSQHLSFILSVQRSSSSCICVTEKQQGSWPLVLTLIRGALMGAGFLLTYGLTWIYYTRCGGPQQSRAERPG
Regarding B1, the IL-8 secretion of THP-1 Siglec-14–Strep-tag II DAP12 cells against Strep-tag II–binding sites of trivalent generic ligand per CHO cell; mean EC50 (Strep-tag II–binding sites per cell) was found to be 200000.
